4 compounds from article PMC6262395, “A Rhodococcal Transcriptional Regulatory Mechanism Detects the Common Lactone Ring of AHL Quorum-Sensing Signals and Triggers the Quorum-Quenching Response” (Frontiers in Microbiology, 2018) can be followed below.

Data set [1] deals with T1, QsdR (Rhodococcus erythropolis, UniProt A0A0C2W9F0).
T1 construct: gene I3517_23075; full-length qsdR ORF in pET19, His-tagged (tag kept), expressed in E. coli BL21(DE3), Ni-NTA; 186 residues, asymmetric dimer
T1 sequence (A0A0C2W9F0 1-186): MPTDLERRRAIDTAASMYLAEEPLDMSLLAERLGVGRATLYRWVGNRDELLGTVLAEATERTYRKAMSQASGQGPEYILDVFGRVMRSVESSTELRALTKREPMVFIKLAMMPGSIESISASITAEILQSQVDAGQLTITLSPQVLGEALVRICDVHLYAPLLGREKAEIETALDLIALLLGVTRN
The data set can be described thus: EMSA, release of QsdR from biotin-labelled qsdR-qsdA intergenic DNA. To be noted: ligand/QsdR molecule ratio 0.1 to 100; 2 μg His-tagged QsdR, 0.4 ng DNA; effector that relieves DNA binding. In general terms: In EMSA bound probe runs differently from free probe, usually more slowly.

Data set [2] has as its target T2, QsdR (TetR-family repressor) (Rhodococcus erythropolis R138) (UniProt A0A0C2W9F0).
T2 sequence: T1 sequence (A0A0C2W9F0 1-186)
In words: competition. To be noted: LightShift Chemiluminescent EMSA Kit (Thermo Scientific) as per manufacturer, 20 ul reaction; buffer, salt, pH and temperature not stated.

The target in data set [3] is T2, QsdR (TetR-family repressor) (Rhodococcus erythropolis R138). In words: EMSA. As to conditions: LightShift Chemiluminescent EMSA Kit (Thermo Scientific) as per manufacturer, 20 ul reaction; buffer, salt, pH and temperature not stated.

As to `N[C@H]1CCOC1=O` [HSL, homoserine lactone], the “EMSA, release of QsdR from biotin-labelled qsdR-qsdA intergenic DNA” value in data set [1] is on record as “Addition of increased amounts of HSL induced a proportional increase in free DNA”.

Take “GGTAGGCATCGGGACATTCTCTCCGGTTGTCCGGTACTGCACAATTTCGGCGGTCGAACAGAGGTGGGCTTCGGGTGGCTCGAGCCTATTGACGAACCAAGCGACGTGAGACACACTAGCTCATTGTCTCATGTTAGTGATGGCGATCACAGTCAGGGGTTCGATCGATGAG (double strand) [unlabeled qsdR-qsdA intergenic competitor]”: the binding entry in data set [2] is “binds”. On to “GGTAGGCATCGGGACATTCTCTCCGGTTGTCCGGTACTGCACAATTTCGGCGGTCGAACAGAGGTGGGCTTCGGGTGGCTCGAGCCTATTGACGAACCAAGCGACGTGAGACACACTAGCTCATTGTCTCATGTTAGTGATGGCGATCACAGTCAGGGGTTCGATCGATGAG (double strand)”, for which, in data set [3], the binding entry is on record as “binds”. The same measure, in the same setting: with “CATTCCTCAAGTGCGCCATCGAAGAACCTGGTCTGACTCCCGGTGTCGAGCGTGTGATGCGAGCGGTCGGTCAGGCGCAGGTCGAAACCGGGGTACCGATCACGGTTCACACGAACCCGCACACGGAATCGGGCCTCGTTGCGCAGAAGGTTCTGGCCGAGGAAGGTGCAGATCTGA (double strand) [qsdA internal fragment (negative control)]” the entry was “no binding”.
